Data as given in patent US11807877.

Columns and labels:
[1] = molecular target: Staphylococcus aureus Cas9, wild-type (Staphylococcus aureus) (UniProt J7RUA5); experiment: cell-based or functional assay
[2] = molecular target: Streptococcus pyogenes Cas9, wild-type (Streptococcus pyogenes) (UniProt Q99ZW2); experiment: cell-based or functional assay
Chain of UniProt Q99ZW2 (Q99ZW2 whole entry): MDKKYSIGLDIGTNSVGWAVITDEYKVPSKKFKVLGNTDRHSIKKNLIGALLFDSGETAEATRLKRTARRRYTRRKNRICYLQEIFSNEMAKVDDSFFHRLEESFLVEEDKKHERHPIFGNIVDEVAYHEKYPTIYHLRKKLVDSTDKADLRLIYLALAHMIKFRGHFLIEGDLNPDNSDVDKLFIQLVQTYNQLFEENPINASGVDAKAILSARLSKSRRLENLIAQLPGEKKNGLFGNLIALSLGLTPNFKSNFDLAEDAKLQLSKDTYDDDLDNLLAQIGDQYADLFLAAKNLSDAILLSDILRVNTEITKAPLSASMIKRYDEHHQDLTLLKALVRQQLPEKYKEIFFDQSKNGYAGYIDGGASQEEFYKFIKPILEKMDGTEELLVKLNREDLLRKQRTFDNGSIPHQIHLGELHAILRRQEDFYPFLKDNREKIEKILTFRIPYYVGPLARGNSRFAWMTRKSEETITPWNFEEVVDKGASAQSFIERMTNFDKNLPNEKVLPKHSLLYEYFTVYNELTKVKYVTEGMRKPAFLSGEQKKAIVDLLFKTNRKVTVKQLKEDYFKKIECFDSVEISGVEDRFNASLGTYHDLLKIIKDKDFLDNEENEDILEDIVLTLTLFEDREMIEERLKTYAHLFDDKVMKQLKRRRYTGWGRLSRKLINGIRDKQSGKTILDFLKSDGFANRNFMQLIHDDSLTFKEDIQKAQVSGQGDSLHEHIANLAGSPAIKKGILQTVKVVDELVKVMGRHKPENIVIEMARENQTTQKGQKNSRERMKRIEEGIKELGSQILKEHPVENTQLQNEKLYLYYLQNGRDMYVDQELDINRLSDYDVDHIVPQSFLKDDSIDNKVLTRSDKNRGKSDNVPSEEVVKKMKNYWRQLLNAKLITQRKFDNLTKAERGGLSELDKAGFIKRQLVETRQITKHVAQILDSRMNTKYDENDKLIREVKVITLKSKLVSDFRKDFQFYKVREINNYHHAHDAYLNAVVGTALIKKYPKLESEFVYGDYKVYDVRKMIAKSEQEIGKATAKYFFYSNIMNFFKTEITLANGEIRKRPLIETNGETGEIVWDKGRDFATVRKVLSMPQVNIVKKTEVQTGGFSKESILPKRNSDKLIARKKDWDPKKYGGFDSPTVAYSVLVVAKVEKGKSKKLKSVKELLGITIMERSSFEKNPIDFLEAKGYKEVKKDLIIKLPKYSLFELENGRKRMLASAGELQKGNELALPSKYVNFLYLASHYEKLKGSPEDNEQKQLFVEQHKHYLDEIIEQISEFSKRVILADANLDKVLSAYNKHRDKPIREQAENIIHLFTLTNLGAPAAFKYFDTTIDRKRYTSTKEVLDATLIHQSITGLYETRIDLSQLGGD

Chain of UniProt J7RUA5 (J7RUA5 2-1053, tags left off): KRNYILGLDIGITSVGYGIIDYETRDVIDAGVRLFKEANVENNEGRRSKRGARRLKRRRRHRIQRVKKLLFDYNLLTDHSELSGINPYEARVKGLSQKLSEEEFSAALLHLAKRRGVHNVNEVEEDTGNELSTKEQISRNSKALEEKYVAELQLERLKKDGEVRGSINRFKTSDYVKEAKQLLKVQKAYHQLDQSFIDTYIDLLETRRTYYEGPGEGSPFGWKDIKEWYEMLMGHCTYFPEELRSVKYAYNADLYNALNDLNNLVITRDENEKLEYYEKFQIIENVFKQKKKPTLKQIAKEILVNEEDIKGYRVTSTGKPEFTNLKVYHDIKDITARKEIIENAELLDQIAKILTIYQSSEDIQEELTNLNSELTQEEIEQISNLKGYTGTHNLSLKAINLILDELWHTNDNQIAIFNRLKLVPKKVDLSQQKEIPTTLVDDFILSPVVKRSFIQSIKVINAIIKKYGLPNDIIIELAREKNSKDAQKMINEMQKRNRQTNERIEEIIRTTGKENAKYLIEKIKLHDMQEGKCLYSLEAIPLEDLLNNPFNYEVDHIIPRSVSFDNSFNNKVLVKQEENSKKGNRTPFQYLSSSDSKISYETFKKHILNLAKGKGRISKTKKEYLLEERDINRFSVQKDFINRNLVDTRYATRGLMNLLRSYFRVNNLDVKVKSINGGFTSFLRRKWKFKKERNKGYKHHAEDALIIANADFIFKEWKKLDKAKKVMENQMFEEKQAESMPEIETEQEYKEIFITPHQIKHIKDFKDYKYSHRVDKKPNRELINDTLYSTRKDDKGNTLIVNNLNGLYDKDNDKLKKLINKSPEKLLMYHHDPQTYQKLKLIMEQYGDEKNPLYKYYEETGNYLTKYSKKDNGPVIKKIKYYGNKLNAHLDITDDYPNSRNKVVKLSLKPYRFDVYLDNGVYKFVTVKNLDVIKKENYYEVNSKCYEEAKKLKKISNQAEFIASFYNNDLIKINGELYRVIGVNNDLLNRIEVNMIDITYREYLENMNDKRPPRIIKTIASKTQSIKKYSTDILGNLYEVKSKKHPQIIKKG

Substance	inhibition of Cas9 cleavage activity in the quenched FRET fluorescence assay [1] [µM]	inhibition of Cas9 cleavage activity in the quenched FRET fluorescence assay [2] [µM]
AcrIIA4 anti-CRISPR protein	> 10	< 0.03
AcrIIC1 anti-CRISPR protein	> 10	> 10
